± gives the uncertainty stated by the source.
Experiment: protein stability index of a GFP-peptide fusion (yeast GPS) (PSI 1-4); higher = more stable; sorted into four equal gates, so the index is relative within each strain
Outline: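 Tiled yeast protein peptides of 17 residues were each joined downstream of GFP, on plasmids that also express Cherry. The pooled library was maintained in yeast, and mid-log cultures in leucine-free medium were sorted into four equal gates on the GFP/Cherry ratio. Plasmids from every gate were amplified by PCR and sequenced on Illumina, with barcodes linking reads to strains. The protein stability index of a peptide is its gate-number-weighted read frequency summed over the gates.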

Sequence | protein stability index (doa10∆) | protein stability index (pdr5∆) | protein stability index (san1∆) | protein stability index (ubr1∆)
FQLVNDVMDELITSSAR [SIR3] | 3.36 ± 0.14 | 2.9 ± 0.087 | 3.42 ± 0.068 | 3.23 ± 0.071
FQQQQQQQQQQQQPQPQ [PGD1] | 2.21 ± 0.11 | 2.7 ± 0.11 | 2.46 ± 0.2 | 3.05 ± 0.21
FQVHERLAPLIKEENDM [ARP7] | – | 3.58 ± 0.17 | 2.97 ± 0.15 | 3.22 ± 0.28
FQVSNVISLGPNLATFI [YJL039C/NUP192] | 1.76 ± 0.14 | 1.99 ± 0.11 | – | 2.17 ± 0.054
FREAIVATEPLLDILVK [PRP8] | 1.86 ± 0.047 | 2.16 ± 0.043 | 1.96 ± 0.1 | 1.54 ± 0.031
FRENMSKEETVDFIKHS [PRE3] | 3.11 ± 0.086 | 3.19 ± 0.086 | 3.16 ± 0.066 | 3.24 ± 0.085
FRFDSIQRETLLPTNNG [GRR1] | 2.59 ± 0.047 | 2.67 ± 0.053 | 2.69 ± 0.04 | 2.92 ± 0.033
FRGARKNKGLVVSPYDY [DIB1] | 2.58 ± 0.077 | 2.54 ± 0.088 | 2.53 ± 0.09 | 2.82 ± 0.081
FRKIKLRVDEVQGKNLL [RPS1A] | 2.96 ± 0.12 | 3.48 ± 0.12 | 2.93 ± 0.13 | 3.36 ± 0.065
FSEGTSADREIQRTLME [RPT4] | 3.41 ± 0.14 | 3.46 ± 0.084 | 3.29 ± 0.091 | 3.1 ± 0.087
FSERAAMFAALQQKQQQ [SWI1] | 1.7 ± 0.042 | 2.15 ± 0.042 | 2.05 ± 0.078 | 2.01 ± 0.027
FSSPAALMKTLIKFVDL [NUT1] | 1.98 ± 0.083 | 1.68 ± 0.057 | 1.95 ± 0.12 | 1.78 ± 0.12
FSWGRPADSTYGAYNTQ [PRE4] | 2.75 ± 0.081 | 2.68 ± 0.064 | 2.94 ± 0.059 | 3.04 ± 0.047
FTCSCNSLTVDGNNANY [RPN14] | 2.8 ± 0.074 | 2.81 ± 0.076 | 2.69 ± 0.058 | 2.75 ± 0.044
FTGDFLRRVEERFTKSK [FAS1] | 3.29 ± 0.14 | 3.6 ± 0.16 | 3.19 ± 0.083 | 2.78 ± 0.27
FTIDAKPPISDSVFSFG [YLR335W/NUP2] | 3.13 ± 0.054 | 2.75 ± 0.047 | 2.73 ± 0.051 | 2.69 ± 0.042
FTLKQWNRLTISVTDTE [COR1] | 1.32 ± 0.049 | 1.22 ± 0.04 | 1.14 ± 0.072 | 1.12 ± 0.047
FTNLGIIVQYLTKFRQK [RGR1] | 2.46 ± 0.053 | 2.64 ± 0.087 | 2.35 ± 0.066 | 2.28 ± 0.07
FTNRIPSKTPEVYMRYR [SWI3] | 2.08 ± 0.052 | 1.88 ± 0.057 | 2.35 ± 0.068 | 2.03 ± 0.054
FTPEEEAAIRRENEWAE [SKP1] | 3.01 ± 0.11 | 3.25 ± 0.096 | 3.34 ± 0.063 | 3.3 ± 0.11
FTPKLIYDFITLFSSIE [ECM29] | 2.06 ± 0.073 | 2.1 ± 0.056 | 2.17 ± 0.11 | 2.38 ± 0.053
FTQPALTLMEKAAFEDL [FAS1] | 2.74 ± 0.1 | 2.33 ± 0.078 | 2.77 ± 0.091 | 2.9 ± 0.07
FTVNVLYPDSSSFKKNL [RPN3] | 2.08 ± 0.057 | 2.59 ± 0.067 | 2.55 ± 0.063 | 2.44 ± 0.057
FVDLVEHFLKLNIDFGS [YML103C/NUP188] | 2.53 ± 0.067 | 2.46 ± 0.06 | 2.54 ± 0.11 | 2.84 ± 0.094
FVPNDGCLNFVDENDEV [RPS23A] | 2.94 ± 0.063 | 3.04 ± 0.071 | 2.78 ± 0.05 | 2.65 ± 0.055

Sequence | protein stability index (doa10∆) | protein stability index (pdr5∆) | protein stability index (san1∆) | protein stability index (ubr1∆)
FVPVPSLAGFHKVQTKL [RPS7A] | 2.53 ± 0.075 | 2.71 ± 0.081 | 2.52 ± 0.073 | 2.75 ± 0.088
FYLYMLVQKFGGADQVT [SWI1] | – | 1.35 ± 0.19 | – | 1.75 ± 0.14
FYMLNAGIRPKFILALN [RPN1] | 2.22 ± 0.16 | 1.81 ± 0.078 | 1.78 ± 0.085 | 1.37 ± 0.058
GAAGAWMMNGALQILNS [FAS2] | 1.48 ± 0.046 | 1.65 ± 0.064 | 2.08 ± 0.12 | 1.68 ± 0.057
GADVTNTTQDNGGDKEL [YCS4] | 3.18 ± 0.12 | 3.19 ± 0.083 | 3.1 ± 0.065 | 3.26 ± 0.074
GAHGNSDPVCLFVCNKD [POP3] | 3 ± 0.098 | 3.37 ± 0.12 | 3.07 ± 0.084 | 2.8 ± 0.059
GAISAVAATNTPIIFIG [SRP54] | 2.85 ± 0.085 | 3.42 ± 0.17 | 2.69 ± 0.073 | 2.66 ± 0.086
GAKVKTMRRQKLTILQE [RET1] | 1.43 ± 0.088 | 2.35 ± 0.06 | 2.05 ± 0.14 | 2.22 ± 0.086
GALDVEGLCIVAGSKCW [RRP45] | 2.83 ± 0.12 | 2.96 ± 0.11 | 2.87 ± 0.077 | 2.9 ± 0.13
GANDLGFTASVSNQENA [MED1] | 3.06 ± 0.083 | 3.17 ± 0.11 | 2.93 ± 0.078 | 3.39 ± 0.11
GASTGNANTGFSFGGTQ [YGL172W/NUP49] | 2.06 ± 0.067 | 2.12 ± 0.054 | 1.58 ± 0.097 | 2.33 ± 0.063
GAVGLKDLTLCRYSCLA [YCS4] | 2.4 ± 0.095 | 2.42 ± 0.1 | 1.94 ± 0.12 | 2.13 ± 0.085
GCGTVKRFNIGADPNYR [RPR2] | 3.15 ± 0.12 | 3.36 ± 0.092 | 3.33 ± 0.09 | 3.46 ± 0.068
GCSKICDLSSKFNKSKA [YCS4] | 3.08 ± 0.087 | 2.82 ± 0.093 | 3.16 ± 0.045 | 2.99 ± 0.057
GDDVVNDVQGIDDVQTI [RPP1] | 3.2 ± 0.15 | 3.46 ± 0.14 | 3.42 ± 0.067 | 3.18 ± 0.081
GDHSSVPVALKGQGPFT [YMR129W/POM152] | 1.87 ± 0.25 | – | – | 1.83 ± 0.2
GDTVRILDTSQSESRQK [SNU114] | 2.81 ± 0.051 | 2.96 ± 0.054 | 2.77 ± 0.05 | 2.9 ± 0.04
GDVKNMEDVKIQKEEEP [SWI3] | 3.45 ± 0.14 | 3.4 ± 0.2 | 3.43 ± 0.085 | 3.14 ± 0.12
GDYDSHDISRYVRAKFL [PRP8] | 2.08 ± 0.077 | 2.11 ± 0.086 | 1.66 ± 0.16 | 1.43 ± 0.055
GEEDAVDLLLEIESIDK [RPN1] | 3.25 ± 0.11 | 3.08 ± 0.14 | 3.25 ± 0.08 | 3.33 ± 0.057
GEITFDGIGGLTEQIRE [RPT4] | 3.34 ± 0.12 | 3.45 ± 0.099 | 3.21 ± 0.093 | 3.54 ± 0.062
GESIMSEEPTDFGFDLD [MCD1] | 3.1 ± 0.13 | 3.25 ± 0.17 | 3.34 ± 0.072 | 3.24 ± 0.095
GFEQVKIALGSPIVNVL [RRI2] | 1.56 ± 0.15 | 2.78 ± 0.2 | 1.48 ± 0.25 | 2.52 ± 0.12
GFERLTVNEPQMSDKHA [SRB7] | 3.06 ± 0.12 | 3.36 ± 0.082 | 3.25 ± 0.14 | 3.16 ± 0.051
